Test results: the supplement of paper PMC12667976

B1: library; numbered along this chain (parent)
chain: MATDAALRRLLRLHRTEIAVAVDSAFPLLHALADHDVVPEDKFQETLHLKEKEGCPQAFHALLSWLLTQDSTAILDFWRVLFKDYNLERYGRLQPILDSFPKDVDLSQPRKGRKPPAVPKALVPPPRLPTKRKASEEARAAAPAALTPRGTASPGSQLKAKPPKKPESSAEQQRLPLGNGIQTMSASVQRAVAMSSGDVPGARGAVEGILIQQVFESGGSKKCIQVGGEFYTPSKFEDSGSGKNKARSSSGPKPLVRAKGAQGAAPGGGEARLGQQGSVPAPLALPSDPQLHQKNEDECAVCRDGGELICCDGCPRAFHLACLSPPLREIPSGTWRCSSCLQATVQEVQPRAEEPRPQEPPVETPLPPGLRSAGEEVRGPPGEPLAGMDTTLVYKHLPAPPSAAPLPGLDSSALHPLLCVGPEGQQNLAPGARCGVCGDGTDVLRCTHCAAAFHWRCHFPAGTSRPGTGLRCRSCSGDVTPAPVEGVLAPSPARLAPGPAKDDTASHEPALHRDDLESLLSEHTFDGILQWAIQSMARPAAPFPS

Variants of: B1
Test: AIRE transcriptional activation functional score (insulin promoter-GFP; nonsense median 0, synonymous median 1) (normalised score); higher = higher AIRE activity (more reporter activation)
Settings: with insulin promoter-GFP reporter in HEK293
In short: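 Flp-In T-REx HEK293 landing-pad cells carrying an insulin core promoter-GFP reporter received codon-optimized AIRE NNN-codon libraries (three regions) through Bxb1 recombinase. Sorting of mCherry+, BFP− integrants took place at day 7, followed by 7 days of expansion and tile-sequencing of top 10% GFP and unselected integrant populations. A functional score was derived from select versus non-select variant enrichment with wild type subtracted. Values from variants reaching 10 counts per million in non-select were set to nonsense median 0 and synonymous median 1 and averaged over biological replicates.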

AIRE transcriptional activation functional score: each site, then its substitutions
R328: L 1.08 | A 0.877 | E 1.06 | G 0.729 | Y 1.34 | T 0.764 | M 1.1 | H -0.256
L323: W 1.42 | Q 1.35 | F 1.5 | D 1.16 | E 1.47 | V 1.21 | T 1.35 | A 1.11 | R 1.15 | I 0.984 | S 0.985 | K 1.19 | P 1.33 | G 1.16 | Y 0.513 | H 0.721 | C 0.656 | N 0.866 | M 1.8
C337: S 1.33 | Q 1.5 | A 1.51 | E 1.73 | R 1.12 | V 1.13 | T 1.42 | W 0.733 | D 1.68 | K 1.28 | H 1.85 | Y 1.07 | G 1.5 | F 0.845 | M 0.956 | P 1.47 | L 1.16 | N 1.53 | I 0.888
S339: M 0.1 | T 1.12 | W 0.962 | I 0.884 | Y 1.09 | K 0.757 | R 1.11 | C 0.985 | G 0.951 | D 0.853 | F 0.807 | P 1.13 | H 1.27 | V 0.99 | Q 1.16 | E 0.838 | L 0.775 | A 1.13 | N 0.771
S332: M -0.16 | Q 0.542 | I 0.887 | C 0.951 | P 0.628 | L 1.17 | V 1.3 | D 0.652 | T 1.23 | E 0.387 | G 1.09 | W 1.41 | Y 1.13 | F 1.34 | H 0.932 | N 1.56 | R 1.04 | A 0.774 | K 0.518
